B1: Carbonic anhydrase-related protein (Homo sapiens), P35219 (parent)
chain: MADLSFIEDTVAFPEKEEDEEEEEEGVEWGYEEGVEWGLVFPDANGEYQSPINLNSREARYDPSLLDVRLSPNYVVCRDCEVTNDGHTIQVILKSKSVLSGGPLPQGHEFELYEVRFHWGRENQRGSEHTVNFKAFPMELHLIHWNSTLFGSIDEAVGKPHGIAIIALFVQIGKEHVGLKAVTEILQDIQYKGKSKTIPCFNPNTLLPDPLLRDYWVYEGSLTIPPCSEGVTWILFRYPLTISQLQIEEFRRLRTHVKGAELVEGCDGILGDNFRPTQPLSDRVIRAAFQ
partner: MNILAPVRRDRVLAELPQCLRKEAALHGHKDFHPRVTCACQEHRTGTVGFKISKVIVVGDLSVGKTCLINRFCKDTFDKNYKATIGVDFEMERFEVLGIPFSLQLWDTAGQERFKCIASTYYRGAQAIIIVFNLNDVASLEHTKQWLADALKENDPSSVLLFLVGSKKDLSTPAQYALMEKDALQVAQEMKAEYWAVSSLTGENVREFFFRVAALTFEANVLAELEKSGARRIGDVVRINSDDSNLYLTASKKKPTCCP
B2: 2'-5'-oligoadenylate synthase 1 (Homo sapiens), P00973-2 (parent)
chain: MMDLRNTPAKSLDKFIEDYLLPDTCFRMQINHAIDIICGFLKERCFRGSSYPVCVSKVVKGGSSGKGTTLRGRSDADLVVFLSPLTTFQDQLNRRGEFIQEIRRQLEACQRERAFSVKFEVQAPRWGNPRALSFVLSSLQLGEGVEFDVLPAFDALGQLTGGYKPNPQIYVKLIEECTDLQKEGEFSTCFTELQRDFLKQRPTKLKSLIRLVKHWYQNCKKKLGKLPPQYALELLTVYAWERGSMKTHFNTAQGFRTVLELVINYQQLCIYWTKYYDFKNPIIEKYLRRQLTKPRPVILDPADPTGNLGGGDPKGWRQLAQEAEAWLNYPCFKNWDGSPVSSWILLVRPPASSLPFIPAPLHEA
B3: Emerin (Homo sapiens), P50402 (parent)
chain: MDNYADLSDTELTTLLRRYNIPHGPVVGSTRRLYEKKIFEYETQRRRLSPPSSSAASSYSFSDLNSTRGDADMYDLPKKEDALLYQSKGYNDDYYEESYFTTRTYGEPESAGPSRAVRQSVTSFPDADAFHHQVHDDDLLSSSEEECKDRERPMYGRDSAYQSITHYRPVSASRSSLDLSYYPTSSSTSFMSSSSSSSSWLTRRAIRPENRAPGAGLGQDRQVPLWGQLLLFLVFVIVLFFIYHFMQAEEGNPF
partner: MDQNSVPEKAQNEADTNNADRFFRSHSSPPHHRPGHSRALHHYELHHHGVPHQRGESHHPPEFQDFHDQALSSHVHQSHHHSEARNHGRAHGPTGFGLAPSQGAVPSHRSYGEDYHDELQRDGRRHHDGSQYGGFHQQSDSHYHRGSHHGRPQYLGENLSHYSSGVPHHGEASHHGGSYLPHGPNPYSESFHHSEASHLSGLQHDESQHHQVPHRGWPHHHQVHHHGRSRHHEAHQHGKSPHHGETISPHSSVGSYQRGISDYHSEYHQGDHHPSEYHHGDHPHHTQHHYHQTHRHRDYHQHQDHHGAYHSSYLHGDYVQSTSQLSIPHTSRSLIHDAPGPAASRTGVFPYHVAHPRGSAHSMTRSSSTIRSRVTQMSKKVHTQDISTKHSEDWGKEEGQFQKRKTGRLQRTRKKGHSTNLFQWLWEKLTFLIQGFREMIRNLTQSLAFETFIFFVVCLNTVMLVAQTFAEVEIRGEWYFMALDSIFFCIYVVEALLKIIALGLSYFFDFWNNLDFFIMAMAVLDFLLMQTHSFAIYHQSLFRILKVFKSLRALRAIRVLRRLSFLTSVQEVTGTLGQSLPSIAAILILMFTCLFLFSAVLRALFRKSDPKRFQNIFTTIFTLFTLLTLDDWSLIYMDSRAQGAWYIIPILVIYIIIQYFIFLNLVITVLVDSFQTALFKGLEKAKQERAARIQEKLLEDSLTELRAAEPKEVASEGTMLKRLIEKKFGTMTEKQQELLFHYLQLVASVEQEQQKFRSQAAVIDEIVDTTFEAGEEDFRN
B4: Inactive peptidyl-prolyl cis-trans isomerase FKBP6 (Homo sapiens), O75344 (parent)
chain: MGGSALNQGVLEGDDAPGQSLYERLSQRMLDISGDRGVLKDVIREGAGDLVAPDASVLVKYSGYLEHMDRPFDSNYFRKTPRLMKLGEDITLWGMELGLLSMRRGELARFLFKPNYAYGTLGCPPLIPPNTTVLFEIELLDFLDCAESDKFCALSAEQQDQFPLQKVLKVAATEREFGNYLFRQNRFYDAKVRYKRALLLLRRRSAPPEEQHLVEAAKLPVLLNLSFTYLKLDRPTIALCYGEQALIIDQKNAKALFRCGQACLLLTEYQKARDFLVRAQKEQPFNHDINNELKKLASCYRDYVDKEKEMWHRMFAPCGDGSTAGES
partner: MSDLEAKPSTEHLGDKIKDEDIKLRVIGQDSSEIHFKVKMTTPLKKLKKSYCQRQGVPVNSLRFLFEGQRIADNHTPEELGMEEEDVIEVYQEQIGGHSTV
B5: ATP synthase mitochondrial F1 complex assembly factor 2 (Homo sapiens), Q8N5M1 (parent)
chain: MWRSCLRLRDGGRRLLNRPAGGPSASMSPGPTIPSPARAYAPPTERKRFYQNVSITQGEGGFEINLDHRKLKTPQAKLFTVPSEALAIAVATEWDSQQDTIKYYTMHLTTLCNTSLDNPTQRNKDQLIRAAVKFLDTDTICYRVEEPETLVELQRNEWDPIIEWAEKRYGVEISSSTSIMGPSIPAKTREVLVSHLASYNTWALQGIEFVAAQLKSMVLTLGLIDLRLTVEQAVLLSRLEEEYQIQKWGNIEWAHDYELQELRARTAAGTLFIHLCSESTTVKHKLLKE
partner: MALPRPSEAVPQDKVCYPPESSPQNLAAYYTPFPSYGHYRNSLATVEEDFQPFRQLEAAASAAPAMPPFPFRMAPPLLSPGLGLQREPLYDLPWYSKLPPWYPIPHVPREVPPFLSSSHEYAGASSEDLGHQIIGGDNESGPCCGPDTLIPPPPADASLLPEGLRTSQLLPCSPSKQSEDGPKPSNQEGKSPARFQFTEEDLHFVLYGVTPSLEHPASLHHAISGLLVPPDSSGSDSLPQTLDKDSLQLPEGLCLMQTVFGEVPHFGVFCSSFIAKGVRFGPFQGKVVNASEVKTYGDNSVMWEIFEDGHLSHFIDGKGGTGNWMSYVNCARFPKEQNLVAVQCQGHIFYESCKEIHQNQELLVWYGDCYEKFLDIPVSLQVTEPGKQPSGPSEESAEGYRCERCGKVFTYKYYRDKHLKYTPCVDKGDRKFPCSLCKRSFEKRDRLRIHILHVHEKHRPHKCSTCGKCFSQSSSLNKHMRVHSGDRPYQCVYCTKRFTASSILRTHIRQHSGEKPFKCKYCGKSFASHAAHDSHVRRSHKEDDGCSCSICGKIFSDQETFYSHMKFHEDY
B6: Alpha-crystallin B chain (Homo sapiens), P02511 (parent)
chain: MDIAIHHPWIRRPFFPFHSPSRLFDQFFGEHLLESDLFPTSTSLSPFYLRPPSFLRAPSWFDTGLSEMRLEKDRFSVNLDVKHFSPEELKVKVLGDVIEVHGKHEERQDEHGFISREFHRKYRIPADVDPLTITSSLSSDGVLTVNGPRKQVSGPERTIPITREEKPAVTAAPKK
partner: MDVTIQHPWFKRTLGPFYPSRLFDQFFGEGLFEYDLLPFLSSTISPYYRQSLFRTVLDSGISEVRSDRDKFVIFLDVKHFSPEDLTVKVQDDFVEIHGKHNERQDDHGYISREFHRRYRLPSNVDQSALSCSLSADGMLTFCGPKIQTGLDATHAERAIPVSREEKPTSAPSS

Variants of: B1
Conditions: with rab34_human RAB34, Q9BZG1

effect of a mutation on the interaction	Variant
disrupting interaction strength	S100P

Variants of: B2
Conditions: with exoc5_human EXOC5, O00471
Chain of exoc5_human EXOC5, O00471 (O00471 whole entry): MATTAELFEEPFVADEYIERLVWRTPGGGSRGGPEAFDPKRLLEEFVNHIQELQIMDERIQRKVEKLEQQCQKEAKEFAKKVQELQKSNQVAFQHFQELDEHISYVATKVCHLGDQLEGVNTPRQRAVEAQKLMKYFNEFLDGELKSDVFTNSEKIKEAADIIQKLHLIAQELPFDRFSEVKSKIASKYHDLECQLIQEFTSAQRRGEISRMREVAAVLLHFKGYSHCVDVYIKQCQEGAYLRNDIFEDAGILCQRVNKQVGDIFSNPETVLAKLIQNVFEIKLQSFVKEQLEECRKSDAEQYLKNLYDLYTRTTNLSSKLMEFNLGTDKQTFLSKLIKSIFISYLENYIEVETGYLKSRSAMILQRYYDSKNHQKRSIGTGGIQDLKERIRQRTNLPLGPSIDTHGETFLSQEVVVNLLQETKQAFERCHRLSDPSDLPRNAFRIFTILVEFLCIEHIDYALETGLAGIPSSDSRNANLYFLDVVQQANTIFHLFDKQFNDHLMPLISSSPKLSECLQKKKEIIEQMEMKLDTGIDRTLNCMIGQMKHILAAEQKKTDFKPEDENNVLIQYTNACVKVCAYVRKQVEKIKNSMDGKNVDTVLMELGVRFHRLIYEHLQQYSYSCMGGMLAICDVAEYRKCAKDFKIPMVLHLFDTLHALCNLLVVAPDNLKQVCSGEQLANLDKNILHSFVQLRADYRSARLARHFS

effect of a mutation on the interaction	Variant
with no effect	R242Q

Variants of: B2
Conditions: with actn1_human ACTN1, P12814
Chain of actn1_human ACTN1, P12814 (P12814 whole entry): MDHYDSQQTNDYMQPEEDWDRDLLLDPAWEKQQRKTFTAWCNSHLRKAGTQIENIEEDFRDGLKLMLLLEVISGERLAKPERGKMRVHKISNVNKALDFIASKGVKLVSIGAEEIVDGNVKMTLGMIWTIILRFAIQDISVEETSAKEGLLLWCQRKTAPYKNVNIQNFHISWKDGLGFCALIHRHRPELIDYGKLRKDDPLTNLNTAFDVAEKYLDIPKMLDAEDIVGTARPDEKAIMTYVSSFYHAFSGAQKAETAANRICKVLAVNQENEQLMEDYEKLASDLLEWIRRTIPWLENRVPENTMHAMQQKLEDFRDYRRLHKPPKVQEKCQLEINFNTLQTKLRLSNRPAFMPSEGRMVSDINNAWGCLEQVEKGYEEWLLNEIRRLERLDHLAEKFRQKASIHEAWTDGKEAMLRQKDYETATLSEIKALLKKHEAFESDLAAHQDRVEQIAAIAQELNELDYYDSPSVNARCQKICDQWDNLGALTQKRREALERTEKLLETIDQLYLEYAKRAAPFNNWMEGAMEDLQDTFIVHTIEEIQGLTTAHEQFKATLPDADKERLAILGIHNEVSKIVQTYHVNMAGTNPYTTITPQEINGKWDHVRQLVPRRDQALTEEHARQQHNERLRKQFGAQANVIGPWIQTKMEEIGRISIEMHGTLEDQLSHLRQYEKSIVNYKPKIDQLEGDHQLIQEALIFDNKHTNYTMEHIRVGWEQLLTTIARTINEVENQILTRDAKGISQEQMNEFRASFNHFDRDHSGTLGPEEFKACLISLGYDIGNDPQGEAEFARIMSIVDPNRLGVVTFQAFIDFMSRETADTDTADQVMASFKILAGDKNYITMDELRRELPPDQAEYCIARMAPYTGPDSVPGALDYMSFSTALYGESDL

effect of a mutation on the interaction	Variant
with no effect	R242Q

Variants of: B3
Conditions: with ctsr1_human CATSPER1, Q8NEC5

Variant	effect of a mutation on the interaction
S54F	with no effect
D72V	with no effect

Now from value to variant:

effect of a mutation on the interaction	Variant
with no effect	P183H
with no effect	P183T

Variants of: B4
Conditions: with sumo5_human SUMO1P1, G2XKQ0

effect of a mutation on the interaction	Variant
with no effect	R202H
disrupting interaction strength	F72L

Variants of: B5
Conditions: with prd14_human PRDM14, Q9GZV8

effect of a mutation on the interaction	Variant
disrupting interaction strength	W94R

Variants of: B6
Conditions: with cryaa_human CRYAA

effect of a mutation on the interaction	Variant
with no effect	P20S

Reference: IntAct's records for PubMed 25910212
